Results published in patent publication US20260234222A1 (LEYDEN LABORATORIES B V, published 2026).
Like-named read-outs stand apart in the source and are kept apart here.

Key:
[1] = biological target: T1, MERS-CoV Spike antigen (MERS-CoV, UniProt K9N5Q8 18-1291); assay: cell-based or functional assay
T1 sequence: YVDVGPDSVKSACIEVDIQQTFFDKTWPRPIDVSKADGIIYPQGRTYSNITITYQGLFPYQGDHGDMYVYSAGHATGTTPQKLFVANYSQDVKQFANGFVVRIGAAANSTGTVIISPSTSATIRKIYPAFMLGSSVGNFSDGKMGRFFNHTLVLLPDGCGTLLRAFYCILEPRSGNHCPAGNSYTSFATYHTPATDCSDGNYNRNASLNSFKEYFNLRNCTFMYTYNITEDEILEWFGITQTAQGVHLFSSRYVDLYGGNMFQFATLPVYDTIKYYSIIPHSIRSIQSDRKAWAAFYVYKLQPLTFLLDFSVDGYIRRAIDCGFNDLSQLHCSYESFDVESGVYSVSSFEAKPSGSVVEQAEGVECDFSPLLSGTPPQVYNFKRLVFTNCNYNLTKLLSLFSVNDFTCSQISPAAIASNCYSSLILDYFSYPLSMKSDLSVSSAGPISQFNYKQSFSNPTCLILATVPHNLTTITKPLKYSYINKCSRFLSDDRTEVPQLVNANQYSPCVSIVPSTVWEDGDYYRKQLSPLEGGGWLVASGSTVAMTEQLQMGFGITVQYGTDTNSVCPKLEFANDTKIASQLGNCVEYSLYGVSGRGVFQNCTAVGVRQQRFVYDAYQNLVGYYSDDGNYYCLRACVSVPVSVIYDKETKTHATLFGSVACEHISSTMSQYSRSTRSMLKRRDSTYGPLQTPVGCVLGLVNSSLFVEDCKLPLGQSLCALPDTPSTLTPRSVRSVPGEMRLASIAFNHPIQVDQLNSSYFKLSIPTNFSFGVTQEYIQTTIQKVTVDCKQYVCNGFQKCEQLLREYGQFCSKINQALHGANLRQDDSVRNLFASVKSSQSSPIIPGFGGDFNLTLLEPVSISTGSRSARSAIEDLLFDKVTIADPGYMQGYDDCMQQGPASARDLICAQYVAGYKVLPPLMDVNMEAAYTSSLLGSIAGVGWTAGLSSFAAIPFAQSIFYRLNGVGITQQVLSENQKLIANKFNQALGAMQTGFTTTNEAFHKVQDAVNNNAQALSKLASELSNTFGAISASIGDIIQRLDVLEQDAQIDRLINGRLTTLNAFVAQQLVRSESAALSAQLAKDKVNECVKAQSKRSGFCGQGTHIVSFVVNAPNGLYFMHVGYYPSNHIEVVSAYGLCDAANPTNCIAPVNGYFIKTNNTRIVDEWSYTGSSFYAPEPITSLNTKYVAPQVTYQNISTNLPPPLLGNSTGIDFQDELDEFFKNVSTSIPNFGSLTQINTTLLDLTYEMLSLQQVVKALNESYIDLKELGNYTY

[2] = biological target: T2, SARS-CoV-2 Spike antigen (SARS-CoV-2, UniProt P0DTC2 14-1208); assay: cell-based or functional assay
[3] = biological target: T3, SARS-CoV-1 Spike antigen (SARS-CoV-1, UniProt P59594 14-1190); assay: cell-based or functional assay
[4] = biological target: T2, SARS-CoV-2 Spike antigen; assay: cell-based or functional assay; remark: listed apart in the source
[5] = biological target: T1, MERS-CoV Spike antigen; assay: cell-based or functional assay; remark: listed apart in the source
[6] = biological target: T2, SARS-CoV-2 Spike antigen; assay: cell-based or functional assay; remark: listed apart in the source
[7] = biological target: T3, SARS-CoV-1 Spike antigen; assay: cell-based or functional assay; remark: listed apart in the source
[8] = biological target: T4, hCoV-NL63 Spike antigen (hCoV-NL63, UniProt Q6Q1S2 19-1291); assay: ELISA, Spike antigen coated on plate
T4 construct: also called human coronavirus NL63
T4 sequence: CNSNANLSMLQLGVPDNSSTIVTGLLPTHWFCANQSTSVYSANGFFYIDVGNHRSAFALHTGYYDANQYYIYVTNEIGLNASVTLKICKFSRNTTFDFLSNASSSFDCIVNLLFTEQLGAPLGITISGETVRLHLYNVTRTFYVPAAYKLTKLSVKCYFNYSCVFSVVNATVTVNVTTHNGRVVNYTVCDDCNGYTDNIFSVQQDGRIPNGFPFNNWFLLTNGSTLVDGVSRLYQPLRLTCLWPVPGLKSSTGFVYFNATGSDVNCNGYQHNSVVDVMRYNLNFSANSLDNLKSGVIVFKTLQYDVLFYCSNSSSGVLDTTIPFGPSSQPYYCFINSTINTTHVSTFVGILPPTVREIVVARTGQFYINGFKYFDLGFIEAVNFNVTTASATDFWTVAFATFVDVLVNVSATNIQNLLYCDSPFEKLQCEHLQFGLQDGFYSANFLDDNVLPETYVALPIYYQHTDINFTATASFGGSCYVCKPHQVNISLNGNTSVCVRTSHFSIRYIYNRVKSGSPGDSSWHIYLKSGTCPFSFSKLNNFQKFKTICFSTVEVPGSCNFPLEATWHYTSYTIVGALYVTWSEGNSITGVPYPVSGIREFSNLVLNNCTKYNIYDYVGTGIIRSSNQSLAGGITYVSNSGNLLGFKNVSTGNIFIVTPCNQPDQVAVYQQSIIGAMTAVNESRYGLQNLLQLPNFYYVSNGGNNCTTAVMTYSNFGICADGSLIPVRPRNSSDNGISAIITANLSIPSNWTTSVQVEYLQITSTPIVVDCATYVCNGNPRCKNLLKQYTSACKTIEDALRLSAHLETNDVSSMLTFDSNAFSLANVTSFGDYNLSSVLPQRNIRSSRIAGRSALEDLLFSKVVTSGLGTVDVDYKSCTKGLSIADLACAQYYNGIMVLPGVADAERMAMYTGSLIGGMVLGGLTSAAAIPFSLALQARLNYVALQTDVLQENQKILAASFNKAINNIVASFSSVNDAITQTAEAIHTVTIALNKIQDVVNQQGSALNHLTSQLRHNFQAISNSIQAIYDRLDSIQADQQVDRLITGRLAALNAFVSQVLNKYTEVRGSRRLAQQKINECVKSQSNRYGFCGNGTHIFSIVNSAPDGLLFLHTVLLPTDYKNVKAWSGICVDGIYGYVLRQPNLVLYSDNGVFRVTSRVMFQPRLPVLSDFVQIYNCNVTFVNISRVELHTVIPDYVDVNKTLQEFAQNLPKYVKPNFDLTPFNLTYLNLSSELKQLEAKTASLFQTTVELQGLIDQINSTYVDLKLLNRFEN

[9] = biological target: T2, SARS-CoV-2 Spike antigen; assay: cell-based or functional assay; remark: listed apart in the source
[10] = biological target: T3, SARS-CoV-1 Spike antigen; assay: cell-based or functional assay; remark: listed apart in the source
[11] = biological target: T4, hCoV-NL63 Spike antigen; assay: cell-based or functional assay

B1: Parental mAb 1 (antibody, V domains shown)
VH: QEQLVQSGAEVKKPGASVKVSCKSSGFTFSYFYLHWVRQAPGQGLEWMGIINPRGDGTRYAQKFQGRVTMTRDASTGTLYMELRSLRSEDTAVYYCARGADHGAFDIWGQGTMVTVSS
VL: EIVLTQSPGTLSLSPGERATLSCRASQSVRRNYFAWYQQKRGQAPRLLIYDASTRATGIPDRFSGSGSGTDFTLTISRLEPEDFAVYYCQQYDSSPPMYIFGQGTKLEIK
notes: also called antibody according to the invention; first parental antibody
Live virus neutralization IC50 [1]: 1.49 µg/mL | Live virus neutralization IC50 [2]: 9.87 µg/mL | Live virus neutralization IC50 [3]: 2.73 µg/mL | Pseudovirion neutralization IC50 [4]: 0.072 µg/mL | Live virus neutralization IC50 [5]: 0.86 µg/mL | Live virus neutralization IC50 [6]: 6.44 µg/mL | Live virus neutralization IC50 [7]: 4.18 µg/mL | binding result [8]: no binding (tested: 10.0-0.000002 nM) | Pseudovirion neutralization IC50 [9]: 0.072 µg/mL | Pseudovirion neutralization IC50 [10]: 0.588 µg/mL | Pseudovirion neutralization IC50 [11]: > 250 µg/mL

B2: Parental mAb 2 (antibody, V domains shown)
VH: QMQLMQSGAEVKKPGASVTVSCKASGDTFSDYRIHWVRQAPGQGLEWMGRMNPKSGDTNFAQKFQGRVTMTRDMSINTAYMTLSGLTFDDTALYYCASLLIVGGFDPLDDFEVWGQGTMVTISS
VL: QSALTQPPSASGSPGQSVTISCSGTSSDVGGYNFVSWYQHHPGKAPKILIYEVTKRPSGVPDRFSGSKSGNTASLTVSGLQAEDEADYYCSSYGGTNNLLFGGGTKLTVL
Live virus neutralization IC50 [5]: 11.6 µg/mL | Live virus neutralization IC50 [7]: 5.94 µg/mL

B3: Bispecific 1 (bispecific antibody)
heavy 1: not shown
light 1: EIVLTQSPGTLSLSPGERATLSCRASQSVRRNYFAWYQQKRGQAPRLLIYDASTRATGIPDRFSGSGSGTDFTLTISRLEPEDFAVYYCQQYDSSPPMYIFGQGTKLEIKSSASTKGPSVFPLAPSSKSTSGGTAALGCLVKDYFPEPVTVSWNSGALTSGVHTFPAVLQSSGLYSLSSVVTVPSSSLGTQTYICNVNHKPSNTKVDKKVEPKSC
heavy 2: not shown
light 2: QSALTQPPSASGSPGQSVTISCSGTSSDVGGYNFVSWYQHHPGKAPKILIYEVTKRPSGVPDRFSGSKSGNTASLTVSGLQAEDEADYYCSSYGGTNNLLFGGGTKLTVLGQPKAAPSVTLFPPSSEELQANKATLVCLISDFYPGAVTVAWKADSSPVKAGVETTTPSKQSNNKYAASSYLSLTPEQWKSHRSYSCQVTHEGSTVEKTVAPTECS
Live virus neutralization IC50 [5]: 1.32 µg/mL | Live virus neutralization IC50 [7]: 6.67 µg/mL
